Consider 41 sequences from the nanobody polyreactivity screen of Harvey et al. (2022).

The series in a line: yeast display, Sf9 membrane polyspecificity reagent, FACS + sequencing; frameworks hold sequencing errors. The method in brief:
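A nanobody's polyreactivity label depends on the gate it was sorted from. Yeast display cells were stained with 10% biotinylated, detergent-solubilized Sf9 membrane reagent for 1 hour at 4 °C, enriched on streptavidin microbeads and sorted by FACS. The low and high (top ~1%) gates were set on anti-HA fluorescence for expression and streptavidin fluorescence for reagent binding.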
“QVQLVESGGGLVQAGGSLRLSCAASGRIFVPNAMGWYRQAPGKERELVAAITRSGSTYYADSVKGRFTISRDNAKNTVYLQMNSLKPEDTAVYYCNAASRRFPGKVWDYHYWGQGTQVTVSS”: the “polyreactivity (PSR sort gate)” value is on record as “low polyreactivity”.
The result for “QVQLVESGGGLVQAGGSLRLSCAASGRIFVPYAMGWSRQAPGKEREFVAAISWNTGSTYYADSVKGRFTISRDNAKNTVYLQMNSLNPVDTAVYYCAAGSGVSYEGGYKINGYWGQGTQVTVSS” reads “high polyreactivity”; that for “QVQLVESGGGLVQAGGSLRLSCAASGRIFVPYAMGWYRQAPGKERELVAAISWNTGSTYYADSVKGRFTISRDNAKNTVYLQMNSLKPEDTAVYYCAAGSRVRYDGGYKINGYWGQGTQVTVSS”, “high polyreactivity”.
The result for “QVQLVESGGGLVQAGGSLRLSCAASGRIFVRNAMGWYRQAPGKEMEFVAAISRSGGSTYYADSVKGRFTISRDNAKNTVYLQMNSLKPEDTAVYYCAADYPKTYTSKFNYWGQGTQVTVSS” reads “high polyreactivity”; that for “QVQLVESGGGLVQAGGSLRLSCAASGRIFVRNAMGWYRQAPGKEREFVAAISRSGGSTYYADSVKGRFTISRDNAKNTVYLQMNSLKPEDTAVYYCAADYPKTYTSKFNYWGQGTQVTVSS”, “high polyreactivity”.
As to “QVQLVESGGGLVQAGGSLRLSCAASGRIFVRNAMGWYRQAPGKERELVAAISRSGGSTSYADSVKGRFTISRDNAKNTVYLQMNSLKPEDTAVYYCAARYARYQYQYDYWGQGTQVTVSS”, the “polyreactivity (PSR sort gate)” value was “high polyreactivity”.
Take “QVQLVESGGGLVQAGGSLRLSCAASGRIFVRNTMGWYRQAPGKERELVAAINSGGSTYYADSVKGRFTISRDNENNTVYLQMNSLKPEDTAVYYCAGQFYLFYEYDYWGQGTQVTVSS”: the “polyreactivity (PSR sort gate)” value was “high polyreactivity”.
The result for “QVQLVESGGGLVQAGGSLRLSCAASGRIFVRYAMGWYRQAPGKERELVAGITSGSRTNYADSVKGRFTISRDNAKNTVYLQMNSLKPEDTAVYYCNARVFRYYGIFDYWGQGTQVTVSS” reads “high polyreactivity”.
With “QVQLVESGGGLVQAGGSLRLSCAASGRIFVRYDMGWYRQAPGKERELVAAISSSDGSTYYADSVKGRFTISRDNAKNTVYLQMNSLKPEDTAVYYCNADVSLDDYDYWGQGTQVTVSS” the entry was “low polyreactivity”; with “QVQLVESGGGLVQAGGSLRLSCAASGRIFVSNAMGWYRQAHGKERELVAGITWTSGSTYYADSVKGRFTISRDNAKNTVYLLMNSLKPEDTAVYYCAAEYWYGNAFDYWGEGTQVTVSS”, “low polyreactivity”.
Turning to “QVQLVESGGGLVQAGGSLRLSCAASGRIFVSYAMGWYRQAPGKERELVAAISSSGGSTYYADSVKGRFTISRDNAKNTVYLQMNSLKPEDTAVYYCNTDQRSRMDYWGQGTQVTVSS”, the “polyreactivity (PSR sort gate)” value was “low polyreactivity”.
Take “QVQLVESGGGLVQAGGSLRLSCAASGRIFVSYAMGWYRQAPGKERELVAAITYSVDSTYYADSVKGRFTISRDNAKNTVYLQMNSLKPEDTAVSYCATDVDWAYGYQYEYWGQGTQVTVSS”: the “polyreactivity (PSR sort gate)” value was “low polyreactivity”.
Take “QVQLVESGGGLVQAGGSLRLSCAASGRIFVSYTMGWYRQAPGKERELVAAISTDATTNYADSVKGRFTISRDNAKNTVYLQMNSLKPEDTAVYYCAADPFEYSYYTLYTSNPFYYWGQGTQVTVSS”: the “polyreactivity (PSR sort gate)” value was “low polyreactivity”.
In the case of “QVQLVESGGGLVQAGGSLRLSCAASGRIFVTNAMGWSRQGPGKERELVAAISYRGGRTYYADSVKGRFTISRDNAKNTVYLQMNSLKPEDTAVYYCNAVTRWPFDYWGQGTQVTVSS”, the “polyreactivity (PSR sort gate)” value is “high polyreactivity”.
The result for “QVQLVESGGGLVQAGGSLRLSCAASGRIFVTYAMGWYRQAPGKERELVAAIPWDGDSTYYADSVKGRFTISRDNAKNTVYLQMNSLKPEDTAVYYCNAKKFNSHVELGYDYWGQGTQVTVSS” reads “low polyreactivity”; that for “QVQLVESGGGLVQAGGSLRLSCAASGRIFVVNAMGWYRQAPGKERELVATITRGASTYADSVKGRFTISRDNAKNTVYLQMNSLKLEDTAVYYCAAAKRPQVVRYDWTKLEYWGQGTQVTVSS”, “high polyreactivity”.
The result for “QVQLVESGGGLVQAGGSLRLSCAASGRIFVVYAMGWYRQAPGKERELVAAITSSGNTNYADSVKGRFTISRDNAKNTVYLQMNSLKPEDTAVYYCAATRDYSSDYWGQGTEVTVSS” reads “low polyreactivity”; that for “QVQLVESGGGLVQAGGSLRLSCAASGRIFVVYAMGWYRQAPGKERELVASITWRGGSTYYADSVKGRFTISRDNAKNTVYLQMNSLKPEDTAVYYCAARYARYLLYDYWGQGTQVTVSS”, “low polyreactivity”; that for “QVQLVESGGGLVQAGGSLRLSCAASGRIFVWNTMGWYRQAPGKERELVAAITSGGSTTYADSVKGRFTISRDNAKNSVSFQMNSLKPEDTAVYYCNTELDLYHPGDDYWGQGTQVTVSS”, “high polyreactivity”.
“QVQLVESGGGLVQAGGSLRLSCAASGRIFVYNAMGSYRQAPGKERELVAAINSGTITNSADSVKGRFTISRDNGKNTVYLQMNSRIPEDTAVSYCAAPWYPSTDYNYWGQGTQVTVSS”: the “polyreactivity (PSR sort gate)” value was “low polyreactivity”.
The result for “QVQLVESGGGLVQAGGSLRLSCAASGRIFVYNAMGWYRQAPGKEWELVATITSGGSTYYADSVKGRFTISRDNAMNTVYLQMNSLKPEDTAVYYCAARRWYVHYFAYGYWGQGTQVTVSS” reads “low polyreactivity”; that for “QVQLVESGGGLVQAGGSLRLSCAASGRIFVYYAMGWYRQAPGKERELVAAISSSGGSTYYADSVKGRFTISRDNAKNTVYLQMNSLKPEDTAVYYCNAVTYFSLSYPRHDYWGQGTQVTVSS”, “high polyreactivity”.
Consider “QVQLVESGGGLVQAGGSLRLSCAASGRIFVYYAMGWYRQAPGKERELVAAITASGASTYYADSVKGRFTISRDNAKNTVYLQMNSLKPEDTAVYYCNVLYPRKYWQVREYYWGQGTQVTVSS”, for which the “polyreactivity (PSR sort gate)” value is reported as “high polyreactivity”.
Take “QVQLVESGGGLVQAGGSLRLSCAASGRIFVYYAMGWYRQAPGKERELVAAITYSVDSTYYADSVKGRFTISRDNAKNTVYLQMNSLKPEDTAVYDCATDVDWAYGYQYEYWGQGTQVTVSS”: the “polyreactivity (PSR sort gate)” value was “low polyreactivity”.
With “QVQLVESGGGLVQAGGSLRLSCAASGRIFVYYTMGWYRQAPGKERELVAAITGSGGSTYYADSVKGRFTISRDNAKNTVYLQMNCLKPEDTAVYYCAARYASTGGGYKYYYWGQGTQVTVSS” the entry was “high polyreactivity”; with “QVQLVESGGGLVQAGGSLRLSCAASGRIFVYYTMGWYRQAPGKERELVAAITGSGGSTYYADSVKGRFTISRDNAKNTVYLQMNSLKPEDTAVYYCAAQLGWWGSGYWGQGTQVTVSS”, “high polyreactivity”.
The result for “QVQLVESGGGLVQAGGSLRLSCAASGRIFWANAMGWYRQAPGKERELVAAISYSGVSTYYADSVKGRFTISRDNAKNTVYLQMNSLIPEDTAVYYCAADRYRKYYYWGQGTQVTVSS” reads “high polyreactivity”; that for “QVQLVESGGGLVQAGGSLRLSCAASGRIFWANTMGWYRQAPGKERELVAAITYSGDSTYYADSVKGRFTISRDNAKNTVYLQMNSLKPEDTAVYYCNAVPSKFSWAVYRGQYDYDYWGQGTQVTVSS”, “low polyreactivity”.
With “QVQLVESGGGLVQAGGSLRLSCAASGRIFWAYAMGWYRQAPGKERELVAAINGSGGSTNYADSVKGRFTISRDNAKNTVYLQMNSLIPEDTAVYYCAADWSLRLYDYWGQGTQVTVSS” the entry was “low polyreactivity”; with “QVQLVESGGGLVQAGGSLRLSCAASGRIFWDNAMGWYRQAPGKERELVAAIDYRGGNTNYADSVKGRFTISRDNAKNTVYLQMNSLKPEDTAVYYCNAEWAVRYPGYDYWGQGTQVTVSS”, “low polyreactivity”.
Take “QVQLVESGGGLVQAGGSLRLSCAASGRIFWDNAMGWYRQAPGKERELVAAISDSVVITYYADSVKGRFTISRDTAKNTVYLQMNSLKPEDTAVYYCGADKRGTVYLSSFWMDYWGQGTQVTVSS”: the “polyreactivity (PSR sort gate)” value is on record as “low polyreactivity”.
The result for “QVQLVESGGGLVQAGGSLRLSCAASGRIFWDYAMGWYRQAPGKERELVAGISYSGGSTSYADSVKGRFTISRDNAKNTVYLQMKSLKPEDTAVYYCAAGPSGTFFRDYDYWGQGTQVTVSS” reads “low polyreactivity”; that for “QVQLVESGGGLVQAGGSLRLSCAASGRIFWDYAMGWYRQAPGKERELVAVITFSGDSTYYADSVKGRFTISRDNAKNTVYLQMNSLKPEDTAVYYCAAARAIRQFWYVATFEYWGQGTQVTVSS”, “low polyreactivity”; that for “QVQLVESGGGLVQAGGSLRLSCAASGRIFWFNAMGWYRQAPGKERELVAAISGGSTNYADSVKGRFTISRDNAKNTVYLQMNSLKPEDTAVYYCAARYLRRYNWGQGTQVTVSS”, “high polyreactivity”.
With “QVQLVESGGGLVQAGGSLRLSCAASGRIFWGNAMGWYRQAPGKEWELVAAITRRGGTTFYADSVKGRFTISRDNAKNTVYLQMNSLKPEDTAVYYCAARRYGQYDGYDSWGQGTQVTVSS” the entry was “high polyreactivity”; with “QVQLVESGGGLVQAGGSLRLSCAASGRIFWGYAMGWYRQAPGKERELVAAISWSGGSTYYADSVKGRFTISRDNAKNTVYLQMNSLKPEDTAVYYCNAYSDGDEDYWGQGTQVTVSS”, “low polyreactivity”; with “QVQLVESGGGLVQAGGSLRLSCAASGRIFWHNAMGWYRQAPGQERELVAAITGGGSTYYADSVKGRFSISRDDAKNTVYLQMNSLKPEDTAVYYCATLGSLRYYWPGYDYWGQGTQVTVSS”, “low polyreactivity”.
The result for “QVQLVESGGGLVQAGGSLRLSCAASGRIFWHNTMGWYRQAPGKERELVATITGGDGNTYYADSVKGRFTISRDNAKNTVYLQMNSLKPEDNAVYYCAKAIVSYDYGRYGKWHEYWGQGTQVTVSS” reads “low polyreactivity”; that for “QVQLVESGGGLVQAGGSLRLSCAASGRIFWQYAMGWYRQAPGNERELVAGITSNGGSTYYADSVKGRFTISRDNAKNTVYLQMNSLKPEDTAVYYCNKVRPGWTYEYGYWGQGTQVTVSS”, “high polyreactivity”.
In the case of “QVQLVESGGGLVQAGGSLRLSCAASGRIFWRYAMGWYRQAPGKERELVAAITGRTGSTNYADSVKGRFTISRDNANNTVYLQMNSLKREDTAVYYCAAAHHRWTGLFPSGYEFDYWGQGTQVTVSS”, the “polyreactivity (PSR sort gate)” value is on record as “low polyreactivity”.
With “QVQLVESGGGLVQAGGSLRLSCAASGRIFWSYPMGWYRQAPGKERELVAAITWRTGRTYYADSVKGRFTISRDNAKNTVYLQMNSLKPEDTAVYYCAAEGYLWGQSYNGLNYDSWGQGTQVTVSS” the entry was “low polyreactivity”.
